Consider one protein from US20230203142.

In this data set the target is human NDPK-A (nucleoside diphosphate kinase A), full-length recombinant.
human NDPK-A (nucleoside diphosphate kinase A), full-length recombinant, sequence (chain, as listed by the source): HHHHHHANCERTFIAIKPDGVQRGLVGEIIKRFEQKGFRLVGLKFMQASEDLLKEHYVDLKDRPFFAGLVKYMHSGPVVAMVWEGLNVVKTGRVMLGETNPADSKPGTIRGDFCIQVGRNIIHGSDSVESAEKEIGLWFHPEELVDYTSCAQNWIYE

B1: human ADK (adenosine kinase), recombinant (protein)
chain: AAAEEEPKPKKLKVEAPQALRENILFGMGNPLLDISAVVDKDFLDKYSLKPNDQILAEDKHKELFDELVKKFKVEYHAGGSTQNSIKVAQWMIQQPHKAATFFGCIGIDKFGEILKRKAAEAHVDAHYYEQNEQPTGTCAACITGDNRSLIANLAAANCYKKEKHLDLEKNWMLVEKARVCYIAGFFLTVSPESVLKVAHHASENNRIFTLNLSAPFISQFYKESLMKVMPYVDILFGNETEAATFAREQGFETKDIKEIAKKTQALPKMNSKRQRIVIFTQGRDDTIMATESEVTAFAVLDQDQKEIIDTNGAGDAFVGGFLSQLVSDKPLTECIRAGHYAASIIIRRTGCTFPEKPDFH
Regarding B1, the “activity of recombinant NDPK to generate ADP (ADP-Glo)” value is given as “addition of recombinant ADK significantly reduced the activity of NDPK to generate ADP”.
